To fix the notation:
T1: human VISTA expressed on the cell surface (HEK293 cells transfected with human VISTA cDNA); native on human … (human, UniProt Q9H7M9 33-311)
T1 construct: whole, on cells; also called PD-1H
T1 sequence (looked up): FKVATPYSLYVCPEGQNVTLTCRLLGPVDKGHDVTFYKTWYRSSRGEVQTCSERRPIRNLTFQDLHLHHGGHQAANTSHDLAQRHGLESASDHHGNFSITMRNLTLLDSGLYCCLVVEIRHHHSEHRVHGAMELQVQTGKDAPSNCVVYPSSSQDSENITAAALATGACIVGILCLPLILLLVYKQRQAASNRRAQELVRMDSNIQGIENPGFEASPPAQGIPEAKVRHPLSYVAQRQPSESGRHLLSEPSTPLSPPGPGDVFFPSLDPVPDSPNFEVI

B1: humanized anti-VISTA antibody 2D12-HZD3 (antibody, human IgG1, kappa, V domains shown)
VH: EVQLVESGGGLVQPGGSLRLSCAASGIDLSSYAMGWVRQAPGKGLEWVGIISSSGSAFYASWAKGRFTISRDNSKNTLYLQMNSLRAEDTAVYYCARHYAGYTTPYYFNFWGQGTLVTVSS
VL: AIQMTQSPSSLSASVGDRVTITCQASENIYSNLAWYQQKPGKAPKVLIYAASDLASGVPSRFSGSGSGTDFTLTISSLQPEDFATYYCQQGFSSSNVDNAFGGGTKVEIKR
notes: kappa light chain
B2: humanized anti-VISTA antibody 14F1-HZD2 (antibody, human IgG1, kappa, V domains shown)
VH: EVQLLESGGGLVQPGGSLRLSCAASGFSFSSSYYMCWVRQAPGKGLEWVACFYAGFSGSTYYASWAKGRFTISRDNSKNTLYLQMNSLRAEDTAVYYCAKGASTYGYTGYDYAGDYFILWQPGTLVTVSS
VL: DIQMTQSPSSVSASVGDRVTITCQASQNIYSNLAWYQQKPGKAPKLLIYAASNLASGVPSRFSGSGSGTDFTLTISSLQPEDFATYYCQSAYYSSSADSYNAFGGGTKVEIKR
notes: kappa light chain
B3: humanized anti-VISTA antibody 41A11-HZD2 (antibody, human IgG1, kappa, V domains shown)
VH: B2 VH with A50G, S59G, S103N, I118T, Q121G, P122Q
VL: DIQMTQSPSTLSASVGDRVTITCQASQNIGSNLAWYQQKPGKAPKLLIYAASNLESGVPSRFSGSGSGTEFTLTISSLQPDDFATYYCQSAYYSSVDSYNTFGGGTKVEIKR
notes: kappa light chain
B4: humanized anti-VISTA antibody 14D8-HZD2 (antibody, human IgG1, kappa, V domains shown)
VH: EVQLVESGGGLVQPGGSLRLSCAASGFDLSSAYYMCWVRQAPGKGLEWVGCIATGSGSTYYASWAKGRFTISRDNSKNTLYLQMNSLRAEDTAVYYCARAPYYSYDGYDYALNLWGQGTLVTVSS
VL: DIQMTQSPSSVSASVGDRVTITCQASEDIVTYLAWYQQKPGKAPKLLIYAASTLASGVPSRFSGSGSGTDFTLTISSLQPEDFATYYCQQTYNYADTDNAFGGGTKVEIKR
notes: kappa light chain
B5: humanized anti-VISTA antibody 3A5-HZD (antibody, human IgG1, kappa, V domains shown)
VH: EVQLVESGGGLVQPGGSLRLSCAASGFSLSSENWICWVRQAPGKGLEWVGCICGANGGSAYHANWVNGRFTISRDNSKNTLYLQMNSLRAEDTAVYYCARAAGVSNAYYFDLWGQGTLVTVSS
VL: DIQMTQSPSSVSASVGDRVTITCQASQYIYINLAWYQQKPGKAPKLLIYDASDLASGVPSRFSGSGSGTDFTLTISSLQPEDFATYYCQCTYGGSTYGNAFGGGTKVEIKR
notes: kappa light chain
B6: humanized anti-VISTA antibody 29G7-HZD2 (antibody, human IgG1, kappa, V domains shown)
VH: EVQLVESGGGLVQPGGSLRLSCAASGFSLSSYAMGWVRQAPGKGLEWVGIIIVSGNIYYASWAKGRFTISRDNSKNTLYLQMNSLRAEDTAVYYCARGDGYTYGLWGQGTLVTVSS
VL: DIQMTQSPSTLSASVGDRVTITCQASQSVYSRYLAWYQQKPGKAPKLLIYSASTLASGVPSRFSGSGSGTEFTLTISSLQPDDFATYYCQGTFYIPDYIDGFGGGTKVEIKR
notes: kappa light chain
B7: humanized anti-VISTA antibody 29G7-HZD4 (antibody, human IgG1, kappa, V domains shown)
VH: B6 VH
VL: EIVMTQSPATLSLSPGERATLSCQASQSVYSRYLAWYQQKPGQAPRLLIYSASTLASGIPARFSGSGSGTDFTLTISSLQPEDFAVYYCQGTFYIPDYIDGFGGGTKVEIKR
notes: kappa light chain

Changes are numbered by the printed parent chain.

In the first assay the target is T1, human VISTA expressed on the cell …. The assay can be described thus: flow cytometry on HEK293 cells transfected with human VISTA, detection with anti-human Ig; EC50 table under the graph. How it is done:
In order to examine the ability of the 7 humanized anti-VISTA antibodies to bind to cell surface expressed VISTA, HEK293 cells were transfected with human VISTA cDNA for 24 hours using Fugene 6 transfection reagent. Cells were harvested by trypsinization, re-suspended in FACS buffer and plated in 96-well plates. Cells were incubated with the concentration of anti-VISTA antibodies indicated in FIG. 5 for 30 minutes on ice. Antibodies were detected using anti-human Ig antibodies and binding was assessed on the MACSQuant flow cytometer (FIG. 5).
B1 showed an EC50 of 1.75 nM.
On the same count and under the same terms, to B2 belongs 2.95 nM; to B3, 1.84 nM.
Still for that read-out and setting: to B4 belongs 2.83 nM.
Consider B5, for which the EC50 was 0.483 nM.
Still for that read-out and setting: in the case of B6 it was 0.463 nM; in that of B7, 0.477 nM.

The target is the same in the next assay. The assay is described as follows: method not stated; table follows flow cytometry on HEK293 cells transfected with human VISTA.
B1 returned a Kd of 1.31 nM.
B2 registered a Kd of 2.19 nM.
Still for that read-out and setting: to B3 belongs 1.35 nM; to B4, 2.2 nM; to B5, 0.293 nM.
On the same count and under the same terms, to B6 belongs 0.281 nM; to B7, 0.295 nM.

The record behind these values is patent US20210139589A1 (APEXIGEN, published 2021).
